Reference: the supplement of paper PMC10219994
± gives the standard deviation of the averaged measurements.

B1: library; a variant is named by its letters at N, in order (parent)
chain: GAGACCGCAACTGAAAAGTTGTGGNNNNNATAGTGAGTCGCTGCCTGCAAAGACACAACT

Variants of: B1
Assay: ligation selection enrichment (abundance after / before one-round selection) (fold); higher = more template-directed ligation activity
Details: with T7Psub CACGGAUGCUAAUACGACUCACUAUA; MgCl2 25 mM; 42 °C; 4 h; pH 8.5
Description: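 Lib-N5 ligase ribozyme library: five randomized core nucleotides (including the GGA motif of N8-1) within the fixed N8-1 ribozyme flanks, transcribed by T7 RNA polymerase with a 5'-triphosphate. The library (0.75 uM) was reacted with substrate T7Psub (6 uM) in 50 mM EPPS pH 8.5 with 25 mM MgCl2 at 42 C for 4 h. Ligated products were PAGE-purified, reverse transcribed and MiSeq sequenced; enrichment = abundance after selection / abundance before selection, with two independent replicates. The full transcript is built from the printed template flanks.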

Row | Variant | ligation selection enrichment
1 | GAGACCGCAACTGAAAAGTTGTGGGTCCAATAGTGAGTCGCTGCCTGCAAAGACACAACT [GTCCA] | 0.148 ± 0.0086
2 | GAGACCGCAACTGAAAAGTTGTGGAACACATAGTGAGTCGCTGCCTGCAAAGACACAACT [AACAC] | 0.159 ± 0.016
3 | GAGACCGCAACTGAAAAGTTGTGGTATGCATAGTGAGTCGCTGCCTGCAAAGACACAACT [TATGC] | 0.29 ± 0.026
4 | GAGACCGCAACTGAAAAGTTGTGGCTCGGATAGTGAGTCGCTGCCTGCAAAGACACAACT [CTCGG] | 0.161 ± 0.036
5 | GAGACCGCAACTGAAAAGTTGTGGGTTTAATAGTGAGTCGCTGCCTGCAAAGACACAACT [GTTTA] | 0.446 ± 0.026
6 | GAGACCGCAACTGAAAAGTTGTGGAATTTATAGTGAGTCGCTGCCTGCAAAGACACAACT [AATTT] | 0.624 ± 0.11
7 | GAGACCGCAACTGAAAAGTTGTGGCGGCAATAGTGAGTCGCTGCCTGCAAAGACACAACT [CGGCA] | 0.177 ± 0.036
8 | GAGACCGCAACTGAAAAGTTGTGGACGATATAGTGAGTCGCTGCCTGCAAAGACACAACT [ACGAT] | 16.5 ± 2.7
9 | GAGACCGCAACTGAAAAGTTGTGGGTTAGATAGTGAGTCGCTGCCTGCAAAGACACAACT [GTTAG] | 0.728 ± 0.01
10 | GAGACCGCAACTGAAAAGTTGTGGGGCTCATAGTGAGTCGCTGCCTGCAAAGACACAACT [GGCTC] | 0.149 ± 0.0062
11 | GAGACCGCAACTGAAAAGTTGTGGGCCTAATAGTGAGTCGCTGCCTGCAAAGACACAACT [GCCTA] | 0.198 ± 0.017
12 | GAGACCGCAACTGAAAAGTTGTGGGCCTCATAGTGAGTCGCTGCCTGCAAAGACACAACT [GCCTC] | 0.114 ± 0.0038
13 | GAGACCGCAACTGAAAAGTTGTGGCGGGGATAGTGAGTCGCTGCCTGCAAAGACACAACT [CGGGG] | 0.165 ± 0.043
14 | GAGACCGCAACTGAAAAGTTGTGGCGGGCATAGTGAGTCGCTGCCTGCAAAGACACAACT [CGGGC] | 0.0737 ± 0.008
15 | GAGACCGCAACTGAAAAGTTGTGGCAACCATAGTGAGTCGCTGCCTGCAAAGACACAACT [CAACC] | 0.126 ± 0.0056
16 | GAGACCGCAACTGAAAAGTTGTGGCAACTATAGTGAGTCGCTGCCTGCAAAGACACAACT [CAACT] | 0.615 ± 0.11
17 | GAGACCGCAACTGAAAAGTTGTGGGCGGCATAGTGAGTCGCTGCCTGCAAAGACACAACT [GCGGC] | 0.103 ± 0.017
18 | GAGACCGCAACTGAAAAGTTGTGGTAAAGATAGTGAGTCGCTGCCTGCAAAGACACAACT [TAAAG] | 0.553 ± 0.13
19 | GAGACCGCAACTGAAAAGTTGTGGCCTTGATAGTGAGTCGCTGCCTGCAAAGACACAACT [CCTTG] | 0.874 ± 0.15
20 | GAGACCGCAACTGAAAAGTTGTGGGAGGAATAGTGAGTCGCTGCCTGCAAAGACACAACT [GAGGA] | 0.501 ± 0.11
21 | GAGACCGCAACTGAAAAGTTGTGGACACAATAGTGAGTCGCTGCCTGCAAAGACACAACT [ACACA] | 0.134 ± 0.024
22 | GAGACCGCAACTGAAAAGTTGTGGTATTCATAGTGAGTCGCTGCCTGCAAAGACACAACT [TATTC] | 0.186 ± 0.0052
23 | GAGACCGCAACTGAAAAGTTGTGGAGTTAATAGTGAGTCGCTGCCTGCAAAGACACAACT [AGTTA] | 0.434 ± 0.065

Row | Variant | ligation selection enrichment
24 | GAGACCGCAACTGAAAAGTTGTGGAACCCATAGTGAGTCGCTGCCTGCAAAGACACAACT [AACCC] | 0.21 ± 0.032
25 | GAGACCGCAACTGAAAAGTTGTGGTACATATAGTGAGTCGCTGCCTGCAAAGACACAACT [TACAT] | 0.578 ± 0.12
26 | GAGACCGCAACTGAAAAGTTGTGGCGTTCATAGTGAGTCGCTGCCTGCAAAGACACAACT [CGTTC] | 0.124 ± 0.0021
27 | GAGACCGCAACTGAAAAGTTGTGGACAAGATAGTGAGTCGCTGCCTGCAAAGACACAACT [ACAAG] | 0.442 ± 0.0085
28 | GAGACCGCAACTGAAAAGTTGTGGACATCATAGTGAGTCGCTGCCTGCAAAGACACAACT [ACATC] | 0.138 ± 0.056
29 | GAGACCGCAACTGAAAAGTTGTGGCACTCATAGTGAGTCGCTGCCTGCAAAGACACAACT [CACTC] | 0.0626 ± 0.02
30 | GAGACCGCAACTGAAAAGTTGTGGAGTCGATAGTGAGTCGCTGCCTGCAAAGACACAACT [AGTCG] | 3.1 ± 0.045
31 | GAGACCGCAACTGAAAAGTTGTGGGGTACATAGTGAGTCGCTGCCTGCAAAGACACAACT [GGTAC] | 0.479 ± 0.053
32 | GAGACCGCAACTGAAAAGTTGTGGACCGGATAGTGAGTCGCTGCCTGCAAAGACACAACT [ACCGG] | 0.409 ± 0.0084
33 | GAGACCGCAACTGAAAAGTTGTGGTAAGTATAGTGAGTCGCTGCCTGCAAAGACACAACT [TAAGT] | 0.0779 ± 0.028
34 | GAGACCGCAACTGAAAAGTTGTGGCAATCATAGTGAGTCGCTGCCTGCAAAGACACAACT [CAATC] | 0.136 ± 0.047
35 | GAGACCGCAACTGAAAAGTTGTGGATAGTATAGTGAGTCGCTGCCTGCAAAGACACAACT [ATAGT] | 0.17 ± 0.01
36 | GAGACCGCAACTGAAAAGTTGTGGAAAATATAGTGAGTCGCTGCCTGCAAAGACACAACT [AAAAT] | 0.461 ± 0.12
37 | GAGACCGCAACTGAAAAGTTGTGGCTGTCATAGTGAGTCGCTGCCTGCAAAGACACAACT [CTGTC] | 0.18 ± 0.017
38 | GAGACCGCAACTGAAAAGTTGTGGAACTTATAGTGAGTCGCTGCCTGCAAAGACACAACT [AACTT] | 0.165 ± 0.066
39 | GAGACCGCAACTGAAAAGTTGTGGTCGCCATAGTGAGTCGCTGCCTGCAAAGACACAACT [TCGCC] | 0.155 ± 0.028
40 | GAGACCGCAACTGAAAAGTTGTGGCGTCGATAGTGAGTCGCTGCCTGCAAAGACACAACT [CGTCG] | 2.71 ± 0.46
41 | GAGACCGCAACTGAAAAGTTGTGGCCACGATAGTGAGTCGCTGCCTGCAAAGACACAACT [CCACG] | 0.415 ± 0.075
42 | GAGACCGCAACTGAAAAGTTGTGGGTGGCATAGTGAGTCGCTGCCTGCAAAGACACAACT [GTGGC] | 0.18 ± 0.0046
43 | GAGACCGCAACTGAAAAGTTGTGGCTAGTATAGTGAGTCGCTGCCTGCAAAGACACAACT [CTAGT] | 0.209 ± 0.029
44 | GAGACCGCAACTGAAAAGTTGTGGCTAGGATAGTGAGTCGCTGCCTGCAAAGACACAACT [CTAGG] | 0.212 ± 0.06
45 | GAGACCGCAACTGAAAAGTTGTGGGTGACATAGTGAGTCGCTGCCTGCAAAGACACAACT [GTGAC] | 4.35 ± 0.17
